T1: BmExd1 full-length (UniProt H9IUR0 1-315)
T1 sequence: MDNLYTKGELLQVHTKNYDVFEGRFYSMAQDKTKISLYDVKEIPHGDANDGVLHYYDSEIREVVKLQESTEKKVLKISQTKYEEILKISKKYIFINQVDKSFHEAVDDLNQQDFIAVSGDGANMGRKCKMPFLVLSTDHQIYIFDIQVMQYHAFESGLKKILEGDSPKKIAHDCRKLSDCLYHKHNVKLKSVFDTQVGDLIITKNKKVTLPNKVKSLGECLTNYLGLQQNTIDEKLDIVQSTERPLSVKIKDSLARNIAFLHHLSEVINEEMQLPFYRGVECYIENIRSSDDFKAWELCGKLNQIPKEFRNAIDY


Key:
[1] = biological target: recombinant full-length BmExd1 (Bombyx mori); experiment: AUC
BmExd1 full-length = biological target: T1, BmExd1 full-length; experiment: ITC

Row | Molecule | stoichiometry N [1] | Kd (BmExd1 full-length) [µM]
1 | recombinant full-length BmExd1 (natural protein) | 2 | –
2 | GGGGUAUUCUUUAAUUAUUUC (ssRNA) [ITC RNA (21 nt)] | – | 27

— publication PMC4712191
